The results in this text go back to patent US20110135573A1 (DYAX, published 2011).

Residue numbers refer to the chain shown, from its start.

B1: M0275-D03 (Fab, V domains shown)
VH: EVQLLESGGGLVQPGGSLRLSCAASGFTFSQYDMWWVRQAPGKGLEWVSVIYPSGTTFYADSVKGRFTISRDNSKNTLYLQMNSLRAEDTAVYYCAKDRAYGDYVGWNGFDYWGQGTLVTVSS
VL: DIQMTQSPATLSLSPGERATLSCRASQSISSFLAWYQQKPGQAPRLLIYDASYRATGIPARFSGSGSGTDFTLTISSLEPEDYAVYYCQQRGNWPITFGQGTRLEIK
notes: sFab; variable domains only; also called M275-D03
B2: M0276-F11 (Fab, V domains shown)
VH: EVQLLESGGGLVQPGGSLRLSCAASGFTFSWYDMWWVRQAPGKGLEWVSVIYSSGGPTFYADSVKGRFTISRDNSKNTLYLQMNSLRAEDTAVYYCAKDRAYGDYVGWNGFDYWGQGTLVTVSS
VL: B1 VL
notes: sFab; variable domains only; also called M276-F11
B3: M0306-D04 (Fab, V domains shown)
VH: B2 VH with W31L, D33P, V50S, S53P, P57A
VL: B1 VL
notes: sFab; variable domains only; also called M306-D04
B4: M0307-F04 (Fab, V domains shown)
VH: B2 VH with W31L, P57Y, F59G
VL: B1 VL
notes: sFab; variable domains only; also called M307-F04
B5: M0275-E12 (Fab, V domains shown)
VH: B2 VH with W31H, P57F, F59G
VL: B1 VL
notes: sFab; variable domains only; also called M275-E12
B6: M0256-D11 (Fab, V domains shown)
VH: B2 VH with W31H
VL: B1 VL
notes: sFab; variable domains only; also called M256-D11; 539A-M0256-D11
B7: M0299-A12 (Fab, V domains shown)
VH: B2 VH with W31H, D33P, V50Y, Y52S, P57G
VL: B1 VL
notes: sFab; variable domains only; also called M299-A12
B8: M0272-H08 (Fab, V domains shown)
VH: B2 VH with W31A, S53P, P57T
VL: B1 VL
notes: sFab; variable domains only; also called M272-H08
B9: M0301-D12 (Fab, V domains shown)
VH: B2 VH with W31M, P57Y, F59S
VL: B1 VL
notes: sFab; variable domains only; also called M301-D12
B10: M0273-G07 (Fab, V domains shown)
VH: B2 VH with W31H, S53P, F59Y
VL: B1 VL
notes: sFab; variable domains only; also called M273-G07
B11: M0301-A09 (Fab, V domains shown)
VH: B2 VH with W31Y, S53P, P57Y, F59A
VL: B1 VL
notes: sFab; variable domains only; also called M301-A09
B12: M0274-G08 (Fab, V domains shown)
VH: B2 VH with W31V, S53P, P57A, F59Y
VL: B1 VL
notes: sFab; variable domains only; also called M274-G08
B13: M0273-C10 (Fab, V domains shown)
VH: B2 VH with W31F, D33P, V50Y, S53P, P57A
VL: B1 VL
notes: sFab; variable domains only; also called M273-C10
B14: M0273-A11 (Fab, V domains shown)
VH: B2 VH with W31R, Y52S, S53P, P57A
VL: B1 VL
notes: sFab; variable domains only; also called M273-A11
B15: M0299-C09 (Fab, V domains shown)
VH: B2 VH with W31N, D33P, V50Y, Y52V, S53P, P57A
VL: B1 VL
notes: sFab; variable domains only; also called M299-C09
B16: M0273-B10 (Fab, V domains shown)
VH: B2 VH with W31K, D33A, W35I, V50W, Y52P, S53P, P57Y, F59S
VL: B1 VL
notes: sFab; variable domains only; also called M273-B10
B17: X0106-B02 (antibody, V domains shown)
VH: B2 VH
VL: B1 VL with D1E, Q3V, M4L, Y83F
notes: Produced and tested as IgG1; germlined, optimized version of M0276-F11
B18: X0106-E04 (antibody, V domains shown)
VH: B1 VH
VL: B1 VL with D1E, Q3V, M4L, Y83F
notes: Produced and tested as IgG1; germlined, optimized version of M0275-D03; also called X0106-E4
B19: X0106-C03 (antibody, V domains shown)
VH: B2 VH with W31V, S53P, P57A, F59Y
VL: B1 VL with D1E, Q3V, M4L, Y83F
notes: Produced and tested as IgG1; germlined, optimized version of M0274-G08; printed as X0106-C04 in some sentences; also called X0106-C04
B20: X0106-F05 (antibody, V domains shown)
VH: B2 VH with W31L, P57Y, F59G
VL: B1 VL with D1E, Q3V, M4L, Y83F
notes: Produced and tested as IgG1; germlined, optimized version of M0307-F04

The target of one test is T1, Mouse MMP-9 (R&D, 909-MM), APMA-activated (mouse, UniProt P41245 108-730, limits assumed).
T1 construct: also called mMMP-9; mouse MMP-9 (R&D Systems #909-MM-010)
T1 sequence (P41245 108-730 limits assumed): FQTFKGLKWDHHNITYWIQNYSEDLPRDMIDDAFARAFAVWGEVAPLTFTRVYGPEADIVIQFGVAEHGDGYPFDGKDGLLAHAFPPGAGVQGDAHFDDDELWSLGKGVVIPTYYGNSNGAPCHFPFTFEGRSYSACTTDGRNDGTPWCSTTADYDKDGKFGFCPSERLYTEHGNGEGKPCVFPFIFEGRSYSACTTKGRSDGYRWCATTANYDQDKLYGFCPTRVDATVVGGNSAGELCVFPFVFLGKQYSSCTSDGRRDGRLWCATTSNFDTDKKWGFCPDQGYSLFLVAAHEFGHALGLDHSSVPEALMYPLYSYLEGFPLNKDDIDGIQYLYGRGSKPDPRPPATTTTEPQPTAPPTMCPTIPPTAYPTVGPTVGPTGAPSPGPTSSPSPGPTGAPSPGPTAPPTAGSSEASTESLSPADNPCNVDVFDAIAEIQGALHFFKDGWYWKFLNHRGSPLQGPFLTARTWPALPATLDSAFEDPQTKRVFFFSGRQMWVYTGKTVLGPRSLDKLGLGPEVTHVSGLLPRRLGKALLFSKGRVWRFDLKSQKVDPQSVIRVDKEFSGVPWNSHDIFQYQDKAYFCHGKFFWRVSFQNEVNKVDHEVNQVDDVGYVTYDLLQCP
As to the kind of experiment: Ki,app, enzyme inhibition assay (fluorogenic peptide substrate), small-scale sFab. On the procedure: (§1) Target enzymes were incubated with inhibitor for two hours at 30° C. in reaction buffer (50 mM Tris-HCl pH 7.5, 150 mM NaCl, 5 mM CaCl₂, 0.05% Brij-35) in a total volume of 90 μL using a white 96 well plate (Costar). […] An anti-MMP-2 antibody (R&D Systems polyclonal IgG #AF902) was similarly tested with 200 nM as the highest inhibitor concentration. Reactions were initiated by the addition of 10 μL of a 10× concentrated stock of substrate, Mca-Lys-Pro-Leu-Gly-Leu-Dap(Dnp)-Ala-Arg-NH2, (Bachem M-2350), at final concentration of 10 μM and monitored at 30° C. in a Molecular Devices' Gemini fluorescence plate reader. The excitation and emission wavelengths were set at 328 nm and 393 nm, respectively. Kinetic data were acquired by the increase in fluorescence, and initial rates for each condition were plotted against the total inhibitor concentration. Reactions were performed in duplicates and all data replicates were plotted in a single graph and fit to the following equation¹: […]
The molecule B1 displayed a Ki of 1.2 nM.
Still for that read-out and setting: under B2 stands 0.4 nM; under B3, 2.8 nM.
With B4, the Ki stood at 0.1 nM.
As for B5, the Ki worked out at 1 nM.

The next test deals with T2, Human MMP-9 catalytic domain (BIOMOL, SE-244) (human, UniProt P14780 107-457, limits assumed).
T2 construct: domain: catalytic domain; also called Cat-huMMP-9; cat-huMMP-9
T2 sequence (P14780 107-457 limits assumed): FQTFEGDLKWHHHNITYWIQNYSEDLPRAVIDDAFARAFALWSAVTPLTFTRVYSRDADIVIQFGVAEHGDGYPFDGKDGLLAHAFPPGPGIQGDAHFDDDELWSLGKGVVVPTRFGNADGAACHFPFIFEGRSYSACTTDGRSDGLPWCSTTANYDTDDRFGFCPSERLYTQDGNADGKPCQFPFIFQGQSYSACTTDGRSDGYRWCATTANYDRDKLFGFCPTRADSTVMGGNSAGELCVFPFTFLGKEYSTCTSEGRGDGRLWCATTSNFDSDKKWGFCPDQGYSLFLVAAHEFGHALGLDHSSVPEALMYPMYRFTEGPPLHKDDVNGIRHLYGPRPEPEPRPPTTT
Described as above. On the procedure: as §1
In turn, B6 gave a Ki of 0.3 nM.
On the same count and under the same terms, under B1 stands 0.6 nM.
Consider B2, for which the Ki stood at 0.2 nM.
Same read-out and setting: under B7 stands 0.2 nM; under B8, 0.4 nM.
On the same count and under the same terms, under B3 stands 0.9 nM.
In turn, B9 returned a Ki of 1 nM.
On the same count and under the same terms, under B10 stands 0.6 nM; under B11, 0.3 nM.
In turn, B12 yielded a Ki of 0.6 nM.
Molecule B13 returned a Ki of 0.9 nM.
Still for that read-out and setting: under B14 stands 0.6 nM; under B15, 0.7 nM; under B16, 0.7 nM.
B4 had a Ki of 0.1 nM.
B5 returned a Ki of 0.3 nM.

In the next test the target is T3, human MMP-2 (Biomol #SE-237) (human, UniProt P08253 110-452, limits assumed).
T3 construct: also called hMMP-2
T3 sequence (P08253 110-452 limits assumed): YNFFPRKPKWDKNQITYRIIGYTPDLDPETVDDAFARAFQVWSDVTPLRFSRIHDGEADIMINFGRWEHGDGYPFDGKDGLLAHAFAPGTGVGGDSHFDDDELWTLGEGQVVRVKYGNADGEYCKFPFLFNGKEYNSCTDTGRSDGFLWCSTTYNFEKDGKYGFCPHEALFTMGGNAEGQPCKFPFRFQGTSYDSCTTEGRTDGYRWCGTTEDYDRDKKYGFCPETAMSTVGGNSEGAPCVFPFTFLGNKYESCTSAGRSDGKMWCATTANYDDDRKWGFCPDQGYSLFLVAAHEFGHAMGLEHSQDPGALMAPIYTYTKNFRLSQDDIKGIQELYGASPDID
The description is as above. On the procedure:
as §1
In turn, B1 gave a Ki of 0.7 nM.
Same read-out and setting: under B2 stands 0.2 nM; under B7, 1.7 nM.
Turning to B3, the Ki is 1 nM.
Same read-out and setting: under B9 stands 1.2 nM.
Molecule B11 registered a Ki of 0.5 nM.
The same measure, in the same setting: under B15 stands over 5 nM; under B4, 0.1 nM; under B5, 0.9 nM.

For another test, the target named is T1, Mouse MMP-9 (R&D, 909-MM), …. Nature of the test: Ki,app, enzyme inhibition assay (fluorogenic peptide substrate), medium-scale sFab. On the procedure:
as §1
B6: the Ki amounted to 0.6 nM.
B1 returned a Ki of 1 nM.
B2: the Ki amounted to 0.6 nM.
On the same count and under the same terms, under B12 stands 0.6 nM; under B4, 0.4 nM.

Another test addresses T2, Human MMP-9 catalytic domain (BIOMOL, …). The test is described as above. On the procedure:
as §1
For B6, the Ki was determined as 0.3 nM.
The same measure, in the same setting: under B1 stands 0.6 nM.
Still for that read-out and setting: under B2 stands 0.4 nM; under B7, 0.6 nM.
Same read-out and setting: under B9 stands 1.7 nM.
B10 showed a Ki of 0.6 nM.
The molecule B11 returned a Ki of 0.5 nM.
Same read-out and setting: under B12 stands 0.5 nM; under B13, 1 nM; under B14, 0.8 nM.
B4 returned a Ki of 0.8 nM.
B5 registered a Ki of 0.4 nM.

In another test the target is T3, human MMP-2 (Biomol #SE-237). Described as above. On the procedure:
as §1
B6 yielded a Ki of 0.5 nM.
For B1, the Ki came to 0.5 nM.
Still for that read-out and setting: under B2 stands 0.4 nM.
The same measure, in the same setting: under B7 stands 1.7 nM; under B9, over 10 nM; under B10, 1 nM.
On the same count and under the same terms, under B11 stands 1 nM.
Molecule B12 displayed a Ki of 0.4 nM.
The molecule B13 yielded a Ki of 2 nM.
The same measure, in the same setting: under B14 stands 2.7 nM.
The same measure, in the same setting: under B4 stands 0.4 nM; under B5, 0.5 nM.

The target of another test is T1, Mouse MMP-9 (R&D, 909-MM), …. Nature of the test: Ki,app, enzyme inhibition assay (fluorogenic peptide substrate), IgG.
Molecule B17 yielded a Ki of 0.24 nM.
The same measure, in the same setting: under B18 stands 0.23 nM.
The same measure, in the same setting: under B19 stands 0.22 nM; under B20, 0.1 nM.

The target of another test is T2, Human MMP-9 catalytic domain (BIOMOL, …). Described as above.
Turning to B17, the Ki was 0.08 nM.
Same read-out and setting: under B18 stands 0.13 nM.
On the same count and under the same terms, under B19 stands 0.14 nM; under B20, 0.15 nM.

A further test deals with T3, human MMP-2 (Biomol #SE-237). Described as above.
The molecule B17 came in with a Ki of 0.31 nM.
As to B18, the Ki is 0.38 nM.
For B19, the Ki was determined as 0.42 nM.
The molecule B20 showed a Ki of 0.3 nM.
